Where two headings read alike, the source gives them in different places.
T1: LacI-CFP-Nup98 (human, UniProt P52948 1-880)
T1 sequence: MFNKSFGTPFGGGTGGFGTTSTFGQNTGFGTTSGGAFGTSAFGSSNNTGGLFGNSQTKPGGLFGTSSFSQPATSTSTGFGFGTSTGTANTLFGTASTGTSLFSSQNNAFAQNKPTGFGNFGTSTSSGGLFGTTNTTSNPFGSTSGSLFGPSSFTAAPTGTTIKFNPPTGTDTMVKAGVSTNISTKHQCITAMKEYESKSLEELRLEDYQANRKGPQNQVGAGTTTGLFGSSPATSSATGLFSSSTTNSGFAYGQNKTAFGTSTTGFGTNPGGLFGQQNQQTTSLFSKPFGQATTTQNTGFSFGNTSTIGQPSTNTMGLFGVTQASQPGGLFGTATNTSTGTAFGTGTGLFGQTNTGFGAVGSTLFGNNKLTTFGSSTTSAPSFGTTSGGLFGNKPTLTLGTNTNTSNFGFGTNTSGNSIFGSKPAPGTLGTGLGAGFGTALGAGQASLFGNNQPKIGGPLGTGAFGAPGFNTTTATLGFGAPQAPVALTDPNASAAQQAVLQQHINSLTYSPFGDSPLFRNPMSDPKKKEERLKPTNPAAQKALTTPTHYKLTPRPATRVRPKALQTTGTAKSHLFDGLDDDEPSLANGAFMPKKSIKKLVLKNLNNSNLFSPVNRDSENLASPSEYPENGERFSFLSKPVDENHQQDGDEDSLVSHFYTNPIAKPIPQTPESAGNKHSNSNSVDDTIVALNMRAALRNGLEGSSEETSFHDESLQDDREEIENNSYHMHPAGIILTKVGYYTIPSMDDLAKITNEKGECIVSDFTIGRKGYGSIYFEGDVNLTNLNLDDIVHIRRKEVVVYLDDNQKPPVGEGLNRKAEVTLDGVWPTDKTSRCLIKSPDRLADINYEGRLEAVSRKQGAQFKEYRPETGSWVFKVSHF

T2: LacI-CFP-Nup58 (human, UniProt Q9BVL2 1-599)
T2 sequence: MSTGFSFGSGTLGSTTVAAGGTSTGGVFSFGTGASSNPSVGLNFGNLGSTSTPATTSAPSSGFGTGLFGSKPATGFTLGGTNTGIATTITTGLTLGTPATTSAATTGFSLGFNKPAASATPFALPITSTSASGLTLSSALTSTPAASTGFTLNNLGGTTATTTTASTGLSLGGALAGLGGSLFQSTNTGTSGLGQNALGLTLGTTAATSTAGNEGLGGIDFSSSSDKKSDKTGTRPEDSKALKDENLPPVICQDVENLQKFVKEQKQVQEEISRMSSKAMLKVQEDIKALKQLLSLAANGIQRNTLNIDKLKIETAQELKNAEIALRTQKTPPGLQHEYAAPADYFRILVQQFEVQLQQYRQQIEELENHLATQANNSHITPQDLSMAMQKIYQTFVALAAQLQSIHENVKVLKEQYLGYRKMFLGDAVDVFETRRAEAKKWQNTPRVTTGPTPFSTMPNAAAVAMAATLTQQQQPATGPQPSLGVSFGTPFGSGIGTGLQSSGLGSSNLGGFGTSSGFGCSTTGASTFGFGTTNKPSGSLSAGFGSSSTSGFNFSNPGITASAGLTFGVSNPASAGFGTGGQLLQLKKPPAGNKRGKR

T3: LacI-CFP-Nup53 (human, UniProt Q8NFH5 1-326)
T3 sequence: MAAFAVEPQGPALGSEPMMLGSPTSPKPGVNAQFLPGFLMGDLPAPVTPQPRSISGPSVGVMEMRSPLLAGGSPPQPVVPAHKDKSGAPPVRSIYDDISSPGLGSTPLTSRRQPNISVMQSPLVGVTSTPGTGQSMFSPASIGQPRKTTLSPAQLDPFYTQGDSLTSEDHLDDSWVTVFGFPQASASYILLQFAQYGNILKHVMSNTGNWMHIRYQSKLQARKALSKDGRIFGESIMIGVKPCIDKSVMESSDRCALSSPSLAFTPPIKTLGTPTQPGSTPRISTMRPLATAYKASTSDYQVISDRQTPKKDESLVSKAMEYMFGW


Assays:
Assay in all cases: LacI/LacO array recruitment in cells
LacI-CFP-Nup98 = target: T1, LacI-CFP-Nup98
LacI-CFP-Nup214 = LacI-CFP-Nup214 (human, UniProt P35658 1-2090)
LacI-CFP-Nup58 = target: T2, LacI-CFP-Nup58
LacI-CFP-Nup53 [1] = target: T3, LacI-CFP-Nup53
LacI-CFP-Nup53 [2] = target: T3, LacI-CFP-Nup53; remark: listed apart in the source

Sequence of LacI-CFP-Nup214 (P35658 whole entry): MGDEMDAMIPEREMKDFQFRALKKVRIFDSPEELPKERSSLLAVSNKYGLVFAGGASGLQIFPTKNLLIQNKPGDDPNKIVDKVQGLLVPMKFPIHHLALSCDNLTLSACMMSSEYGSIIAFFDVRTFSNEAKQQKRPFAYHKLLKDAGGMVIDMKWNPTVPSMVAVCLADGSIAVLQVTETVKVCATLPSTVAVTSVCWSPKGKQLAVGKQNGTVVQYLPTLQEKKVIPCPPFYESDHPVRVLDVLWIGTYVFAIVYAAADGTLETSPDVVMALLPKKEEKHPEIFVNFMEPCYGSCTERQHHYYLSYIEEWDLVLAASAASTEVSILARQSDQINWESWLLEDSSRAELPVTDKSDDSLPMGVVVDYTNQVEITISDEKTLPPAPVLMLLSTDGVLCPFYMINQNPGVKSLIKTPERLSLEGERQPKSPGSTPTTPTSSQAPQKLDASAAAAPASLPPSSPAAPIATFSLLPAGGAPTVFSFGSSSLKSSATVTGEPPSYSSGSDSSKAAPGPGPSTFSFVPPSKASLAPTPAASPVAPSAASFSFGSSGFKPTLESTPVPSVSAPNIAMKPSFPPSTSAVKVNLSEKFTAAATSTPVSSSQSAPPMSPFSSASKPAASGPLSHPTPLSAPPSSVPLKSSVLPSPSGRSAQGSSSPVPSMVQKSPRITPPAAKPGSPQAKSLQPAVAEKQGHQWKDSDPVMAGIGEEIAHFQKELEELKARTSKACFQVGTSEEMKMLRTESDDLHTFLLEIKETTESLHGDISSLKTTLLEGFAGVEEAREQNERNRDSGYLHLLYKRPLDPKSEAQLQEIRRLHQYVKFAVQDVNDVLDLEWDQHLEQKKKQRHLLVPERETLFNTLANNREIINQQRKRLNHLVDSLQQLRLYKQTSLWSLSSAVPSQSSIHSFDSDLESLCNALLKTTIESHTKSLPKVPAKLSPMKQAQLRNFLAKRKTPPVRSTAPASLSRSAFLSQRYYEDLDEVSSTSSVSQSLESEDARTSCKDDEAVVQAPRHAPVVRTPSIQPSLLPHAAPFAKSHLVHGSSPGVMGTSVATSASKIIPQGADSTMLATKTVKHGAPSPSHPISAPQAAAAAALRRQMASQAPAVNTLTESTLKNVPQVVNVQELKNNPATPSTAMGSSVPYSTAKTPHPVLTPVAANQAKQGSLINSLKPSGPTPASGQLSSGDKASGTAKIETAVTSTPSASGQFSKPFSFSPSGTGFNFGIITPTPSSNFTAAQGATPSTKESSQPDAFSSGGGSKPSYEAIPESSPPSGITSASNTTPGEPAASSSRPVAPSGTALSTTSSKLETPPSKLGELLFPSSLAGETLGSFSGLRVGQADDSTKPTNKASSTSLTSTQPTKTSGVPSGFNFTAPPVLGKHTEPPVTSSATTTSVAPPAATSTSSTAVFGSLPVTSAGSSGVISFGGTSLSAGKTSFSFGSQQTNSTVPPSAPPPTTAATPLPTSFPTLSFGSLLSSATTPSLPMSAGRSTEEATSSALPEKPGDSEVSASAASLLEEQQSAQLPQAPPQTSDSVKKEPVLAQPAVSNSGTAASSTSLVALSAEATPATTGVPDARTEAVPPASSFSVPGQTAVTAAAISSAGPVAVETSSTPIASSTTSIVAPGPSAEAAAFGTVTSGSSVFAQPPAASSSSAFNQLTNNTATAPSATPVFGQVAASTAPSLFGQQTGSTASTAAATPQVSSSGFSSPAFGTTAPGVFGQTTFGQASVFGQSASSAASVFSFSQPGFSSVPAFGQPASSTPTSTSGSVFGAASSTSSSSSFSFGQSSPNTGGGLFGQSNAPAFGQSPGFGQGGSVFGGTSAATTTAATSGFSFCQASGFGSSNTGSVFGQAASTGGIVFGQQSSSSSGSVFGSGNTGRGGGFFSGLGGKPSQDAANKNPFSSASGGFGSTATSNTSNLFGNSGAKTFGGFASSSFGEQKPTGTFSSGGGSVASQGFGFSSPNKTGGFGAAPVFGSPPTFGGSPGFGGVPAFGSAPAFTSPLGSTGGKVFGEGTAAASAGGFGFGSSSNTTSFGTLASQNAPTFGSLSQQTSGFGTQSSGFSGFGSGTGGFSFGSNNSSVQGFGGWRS

Binder	percent of transfected cells showing colocalization (LacI-CFP-Nup98) [%]	percent of transfected cells showing colocalization (LacI-CFP-Nup214) [%]	percent of transfected cells showing colocalization (LacI-CFP-Nup58) [%]	percent of transfected cells showing colocalization (LacI-CFP-Nup53 [1]) [%]	percent of transfected cells showing colocalization (LacI-CFP-Nup53 [2]) [%]
Nup62 (endogenous) (natural protein) MSGFNFGGTGAPTGGFTFGTAKTATTTPATGFSFSTSGTGGFNFGAPFQPATSTPSTGLFSLATQTPATQTTGFTFGTATLASGGTGFSLGIGASKLNLSNTAATPAMANPSGFGLGSSNLTNAISSTVTSSQGTAPTGFVFGPSTTSVAPATTSGGFSFTGGSTAQPSGFNIGSAGNSAQPTAPATLPFTPATPAATTAGATQPAAPTPTATITSTGPSLFASIATAPTSSATTGLSLCTPVTTAGAPTAGTQGFSLKAPGAASGTSTTTSTAATATATTTSSSSTTGFALNLKPLAPAGIPSNTAAAVTAPPGPGAAAGAAASSAMTYAQLESLINKWSLELEDQERHFLQQATQVNAWDRTLIENGEKITSLHREVEKVKLDQKRLDQELDFILSQQKELEDLLSPLEELVKEQSGTIYLQHADEEREKTYKLAENIDAQLKRMAQDLKDIIEHLNTSGAPADTSDPLQQICKILNAHMDSLQWIDQNSALLQRKVEEVTKVCEGRRKEQERSFRITFD	8	97	100	–	–
Nup93 (endogenous) (natural protein) MDTEGFGELLQQAEQLAAETEGISELPHVERNLQEIQQAGERLRSRTLTRTSQETADVKASVLLGSRGLDISHISQRLESLSAATTFEPLEPVKDTDIQGFLKNEKDNALLSAIEESRKRTFGMAEEYHRESMLVEWEQVKQRILHTLLASGEDALDFTQESEPSYISDVGPPGRSSLDNIEMAYARQIYIYNEKIVNGHLQPNLVDLCASVAELDDKSISDMWTMVKQMTDVLLTPATDALKNRSSVEVRMEFVRQALAYLEQSYKNYTLVTVFGNLHQAQLGGVPGTYQLVRSFLNIKLPAPLPGLQDGEVEGHPVWALIYYCMRCGDLLAASQVVNRAQHQLGEFKTWFQEYMNSKDRRLSPATENKLRLHYRRALRNNTDPYKRAVYCIIGRCDVTDNQSEVADKTEDYLWLKLNQVCFDDDGTSSPQDRLTLSQFQKQLLEDYGESHFTVNQQPFLYFQVLFLTAQFEAAVAFLFRMERLRCHAVHVALVLFELKLLLKSSGQSAQLLSHEPGDPPCLRRLNFVRLLMLYTRKFESTDPREALQYFYFLRDEKDSQGENMFLRCVSELVIESREFDMILGKLENDGSRKPGVIDKFTSDTKPIINKVASVAENKGLFEEAAKLYDLAKNADKVLELMNKLLSPVVPQISAPQSNKERLKNMALSIAERYRAQGISANKFVDSTFYLLLDLITFFDEYHSGHIDRAFDIIERLKLVPLNQESVEERVAAFRNFSDEIRHNLSEVLLATMNILFTQFKRLKGTSPSSSSRPQRVIEDRDSQLRSQARTLITFAGMIPYRTSGDTNARLVQMEVLMN	–	–	–	63	67

Source: PMC4615246 (Nucleus, 2015)
